Measurements as given in a protein production outcome set (Wang et al. 2014).

assay: label from the status in PepcDB records

| Sequence | protein production |
| --- | --- |
| MRLEKQLIKKMYYETFLMENETKPTLDVLGQAYVNEEKNEISDGSYIRFAQGEFYYRHQDFEAAIFKWEKVSNELAPWAQKNIADAYFELNQLSFAENIYTSITTDNKILMTEIRLQLLSLYIEQNNFDSAFGVIKEAVSLNPDYPNVTKIARSFYEEQQDFDSAVELAVNELIRIESYPWFEVLKGYIDKGFTKHISPDYFYDALATLNNVDQVQFTQMVSSLWNSYKNEKNYLLWLNTINEFFLHIEIHSSDIWNKVSALYEETYFALIQGQYTLRQLNDIIPNLLANWLKVVNPSYAVFPSAAVLAWDEIFPSKIDSANIEHAENLLSHSINHVNGLEYSLHLFESITQWAQKQNIEIGHRFKWLVDELADLRTNRILVTGTSGNGKTTFINSILGENILEKSISNVVVLKNDAHIEINAITDSAITTTEDVSDYHNMMSQHHQTYRDRACVEFKLPCRFLNENKLTFVVTPGFNRNNDTRDEIFEYLNSVDELLFVLNADSPFTDKERDILLSIQEHTPNLQIHFLLNKIDNIYSEAEVKRVLHDTATRINTYFPYARIFPYSSLYTSSQQLNDLTEFIHFNFNHKNIDAERTEKLLFFIRKTITYLLDKRVEKENNLVDAINWNEDMLVKLNGSINNLTTFEREKIHFITQSYRSMKTEITNDLTENIPKILKSCSNLISEESDFGHMDTELNKAMNERVHKYLEQTVLPNLALSMQNWIATSNNELLQSQTYLEELSEGLNSLFGENRIQLECDFKVLDDWRRDTDRMTTRIQMDEVNILRRFTPAQFLLKSAGKLFGVLPKNKSMLYNKYKQYVENEDYTEVTASIMKKFFLQFELFENTQERDINIFFRNPFNSLKQAVENTHLEIQEKQEILHKMKSNPEIYHDSIMLFELRLRQCEVILNIGNDNTYTDVALETSVE | failed |
| MRLFFEFTLCAALGLLVSGVILIFLLFFGKFGLIEYWIASGKPLAHAMLVLMPDGFWEGLSGIEGAAGNPHVRSFLELCMGLGQSALLLGLLLFRLVCWK | failed |
| MRLFIMEFKHLMFSKTFLFYCLLIIIFTVLNCQQVLKHPINSDVYQPQNMTMYSTDKNLIMSNEIKELKNEVHQNNFKTYQFGFLKQKKLNDQQISKIKKLISKMEKTNNFHQFKNYSNSVSHVVGWGSQYSKNNISLFGIKNMSKSKYVKEKNIIKNKEYYYGAYSRYFSDIMGVVLGILPFFLGAQMILQDKKSNAIKTIHSKSISSYQLISTRVFTILVLAYLPVLLVSIYFVTCLSMIHQISMFSLFIFYKILILWTLPTLIFTIAMGFFVTIILNSYLGVMIQIVIWFINLNIGSRAIEGCYGSLLIPRHNTLFNAVFFYNHFNQILANRFTYFGLGLLLILLSTYIFDLKRREVGFNAKIFTNRYQN | failed |
| MRLFIVQAMFTEYRPTHGYDEYFCREQSAPRADLEPLLSSLGAMGLAELNRSHASASNLLRRLGATFRLNGSGLHGGERILPFDPLPRLIHRQEWSVLERGLVQRLEAIDQFLADVYGPQRILNDGVIPREDVESSQGWRPQMQDIAVPLNRWCHISGLDLIRDGDGTWRVLEDNLRCPSGVAYFLENRRVMKRLFPSLFQGRTVQPIDDYPSHLLRTLQDLAPWSDAPRVVLLTPGVFNSAYFEHSYLAQQMGIALVEGRDLICEDGRVWMRSTAGREPVDVIYRRIDDDFLDPNVFRRDSMLGVPGLIDAMRSGRVAIANAPGSGVADDKLIYAYVPAMIRYYLNEEPIIDNVPTYLCSRDDDRRYVLEHLNELVVKSVAEAGGYGMLIGPHASSEEIESFAVKIKAHPRNFIAQPTLQLSTVPSLSEGELYPCHVDLRPYVLRGKSDWVSPGGLTRVALKRGSLVVNSSQGGGCKDTWVVSDSAVTAGNQELVPC | failed |
| MRLGRIASPDGVAFVSIEGELDNPAEMIAREIAEHPFGTPNFTGRSWPLADVRLLAPILASKVVCVGKNYADHIAEMGEATGPVPADPVIFLKPNTAIIGPNVPIRLPANASPVHFEGELAVVIGRPCKDVSAAQAAENILGYTIGNDVSARDQQRSDGQWTRAKGHDTFCPVGPWIVTDLNPLDPGDLELRTEVNGEVKQRSRTSLLIHDIGSIVEWISAVMTLLPGDLILTGTPAGVGPIEDGDTVSITIEGIGTLTNPVVRKGKS | failed |
| MRLIERYLFRQLLGPTLLATAALVALALLARSLSEFDVLVEQRQSALVFLKIILLALPQLLGIMMPLALFVAALVALNRLHTEQEIVVCFAGGMSRWRVISPAMRLAVIAALISLISGLWLQPWSARQIRETAFQIKTDVAATLVQPGQFTEPGPGLTVYAQSIDRDNKIQNLFIHQELPNGAASTYSSREAEIATRKGEPVLIMRHGSNQQFSRDGVLQYTSFDEYTFDLSSLFHSDELLHYKIADRYPHELFFPDLTQEWEQRNKDKLLAEGHSRFAGPLYNIALMSMALAAVLGGSFSRMGYGKRIAAVGAAAAIVRIVGFGVQAACEDDPWLNVLQYIVPLAATAWAMSQIFRQRVSPRRKTKPATPAPAFSGAA | failed |
| MRLITHNMLSCNIKGVTSGFPLRIEAGNVIEKEVDFNPDFIRHMFAKIEWKALVEGARSMGYAELPEESPDAAVLKSDEPFLKKLHHALLELHLEEGALVCPETGRKFPVNKGIPNMLLHEDEV | failed |
| MRLNGDVGWLWDWLAAAGLEPRALGEAAVLCALKRRLDAAGCTAAAYPARLAADAEERARLLDAVLVPETWFFREPPAFEALAESAARHRLQRRSVPFHVLSLGCSTGEEPWSIVIALREAGMRKGDFRVEALDISARAIEAARAGIYGGRSFRSPGDGTWRSRYFDELGDGRYRVKDGLRGDVEYRVAHLGDPGWGGGRRYQAVFCRNVLIYLRAELRARIMDQCRDALDPGGLLVLGHADGIGGPDRGFRRHGVAGAFSWIRRDAAEAEPPPARSSRPLAAKAVRRDAPGEAKPSGPDLLSGGRETGRAAPFDEGAVLGTARALADGGNYQAAERLCQSHLASHPHDPEVHALLGIVMSAANRDDEALRYFRQALYLAPSHNESLLHLAALYERRGDEERARHFRNRSAAAEGEP | failed |
| MRLNQISKFAIVSVVVLVLALLLGGSAKTNLTVEEVNKALEPFFDSLSYILNYYYEADKLDINKLIDHAIDGLVKGTGDDFSYYQDPETYRENQIEMKGEYGGLGIEVTYDAEHGAIKVVAPMYGTPAWRAGLKAGDLIITIDGTPVSKMTYMEAVNNLRGEPGTSVTIEVLRDGEKLTFTIVREKIEIKMVLYSFIETEKGSIGYVRITRFGEKADSDMKNALDKIFEKGVKGLIIDVRDNPGGYLDVALKIVSMFVDKGVILKVRNGFGEEDVYESYGNSYPNVPIVLLVNEGSASASEILTGALKDLGIATVVGRKTFGKGSVQTGFPLSNGGVLFLTTAHYLTPSGKDIHKIGIEPDVLVEESVEEELHAETREQIEVDPEKDPFVKKGLEVLLEKIK | failed |
| MRLPPRLALSVLAGRGPSCILGSGAATRKDWQERNRRSFSDLYTQPLPDCDFEESSSWTHKSRSEPTRHIACKKSARNLVRDLLEHQNPSHQLILECNPGPGILTGALLKAGARVVAFESEKMFIPHLESLRKNADGELQVVHCDFFKIDPRYQELVRPDVNSHTIFQNLGIKAVPWSAGVPIKVFGILPNKHERRLLWKILFDLYSCESIYRYGRVELNMFISEKEFRVRC | failed |
| MRLRVDVIPGEHLAYPDVVLVVDVIRATTTAAAFLEAGAEALYWTPSLESALAFKDEDVVLAGETGGLKPPRFDLGNSPREALSAQVAGRVVVMSTTNGTKAAHAAARTAKHVLLASLYNAHAAARLARELATEEVAILCAGKEGRAGLDDLYTAGVLAEYLGFLGEVEPEDGARVALAVKRAYPDPLEALSLSAAALALKQVGLEADVPFCAQVAKSAAVPVLRGRVGEALIFKRA | not failed |
| MRLTIERRKASLYLRGNLPPKLPGGEWKQQRMPLGLDATPLGVKQAEAKAHQVGLELQMDRFRWQDHVELPIDASVMSGLVHLAEERYFSERDRTAKTLSTWQRVYVAHYRQIGLDKPFSLELIHRYLSSKRGFPNALQKAIVACRFLCAVANQPLDARPWQGVATRREVVPRELPTQQQIVDWFDHLKNMQLHHQPEFRAGWIWVYAAIATYGLRPHEAWYLDLDSLRKSKGKRVWLKDGKTGPRWVYPCPPQWVQRFDLCHGGPPPINVRNNQELGTRAGQWAKANGVPPLYGLRHSYAVRLIEYEFPVTVAAKMMGHSPQVHTETYHRWLGDREVQSYAEDLLR | failed |
| MRLTKLAATIGCVTLSGLALVACSSDSTAGTDAVAVGGTFQFHSPDGKMEIFYDEADRQQLPDIGGDSLMEEGTQINLSDFENQVVILNAWGQWCAPCRSESDDLQIIHEELQAAGNGDTPGGTVLGINVRDYSRDIAQDFVTDNGLDYPSIYDPPFMTAASLGGVPASVIPTTIVLDKQHRPAAVFLREVTSKDVLDVALPLVDEA | not failed |
| MRLVSLLPSATEIIAALGLLPFLVGRSHECDYPPEVKALPVCTRARLNAQQSSLAIDRVVQELLRAALGIYDLELATLQALKPTHIITQDQCDVCAVTLPDVQRAIADLLEPPPQLISLQPHCLEDIWEDIRRVGLTLGVAPDPLLTVLKERMRACQRRVSDRPRRQVVAIEWIDPPMASGNWIPELIALAGGENMLGTAGKHSPYIEWSTLLAIDPEVILVMPCGFDLERTRQELDQALQTYPQWQQLRALQTGQLYILDGNAYFNRPGPRLVDSLEILVEILHPCPEPKFHGVGWRPYVGPSMAKMSDEG | failed |
| MRMIDIIEKKRDGHTLTTEEINFFIGGYVKGDIPDYQASSLAMAIYFQDMNDDERAALTMAMVNSGDMIDLSDIKGVKVDKHSTGGVGDTTTLVLAPLVAAVDVPVAKMSGRGLGHTGGTIDKLEAIDGFHVEIDEATFVKLVNENKVAVVGQSGNLTPADKKLYALRDVTGTVNSIPLIASSIMSKKIAAGADAIVLDVKTGSGAFMKTLEDAEALAHAMVRIGNNVGRNTMAIISDMNQPLGRAIGNALELQEAIDTLKGQGPKDLTELVLTLGSQMVVLANKAETLEEARALLIEAINSGAALEKFKTFIKNQGGDETVIDHPERLPQAQYQIEYKAKKSGYVTELVSNDIGVASMMLGAGRLTKEDDIDLAVGIVLNKKIGDKVEEGESLLTIHSNRQDVDDVVKKLDSSITIADHVVSPTLIHKIITE | not failed |
| MRMLAHAIKVWNENTGALSHLEIEPLPHQIHLVHHILASGNFNWLIADDVGLGKTIETGMLLHALQQRDLAKRILLITPAGLTKQWQEELYHKFKLEDFEIYGEDFFINEPRQWKMHDCVIGSMDRLKQVDHLESLLQAEPWDLVIFDEGHRLSRRQYGQKLDSSERYDLAKNLRSQTKHMLLLSATPHQGMQDKFVALLELLRPERR | failed |
| MRMQQDVQDVKLIAVLNLLNQLSNKNSLEEYLNGVIDFLSGWTGCENIGIRVLREAGLAPYVVHRGFDKDFIASESCISVEGDECVCLRVLKQQFKSEDQDHISAAGTYYAPNFYRYVEELREDQLLNFRGLCAHKQFKSLAVIPLLHQGKVVGAIHIADIKDGVFSEEDIHFIETIRPLVAEAIYRHNLEKALESTVLRYEAEEMVIRKLKFEERLASISARFNQQEDFKAAAEESLKDILKLFKAEEVCLYLGGNLKEYVSVREHGQQACGCVIPSDTFAELRGRWKQGEILCQKPALQDEFKEIEYFAQEVFSKDSILTIPLNFKGSLLGVLIIVNISSGGLPFKEILNPLKLVTETFANAVEQGRIQYQLMWSENRYRTIFNHSGSAFLIVDENLKILLSNPQAERLLDLPSAKIDNIAYLTDFLPDTEVGRLKEYNRRRLQRDPQIPRQYEMKYKDSRGNLKDVIVSAEVIPQTTQTVLSIIDITEWKKTEAELQFLNLHDRLTGLYNRVYFEQELRRYETDPGQEVGLIMADVNGLKLINTTFGSEAGDQVLVTTARLLNECFEEHLVARIGGDEFAVLIEKDKNVDLEQACQLFRRNVEKYNKDHDGYPLDISLGYACSGAGGVNMSELLRKADDAMGREKLHSNNSTRNSQVQILSKALECRDFITEGHAERVQNLIISTGQLAGLSEQRLSDLKLFAQFHDIGKVGIPDQILFKKGRLTADEWEIMKQHCEIGYRIAQSTPDIYPIADWILKHHENWDGSGYPLGIAGEEIPIECRILAVADTFDAMTNDRPYRKAQSTQAAIEEILRCAGTQFDPHIVELFVKTV | failed |
